In patent publication US20200405759A1 (UCL BUSINESS, published 2020):

Target: T1, human ROR1-Fz domain with Q(261)H and I(254)V (human, UniProt Q01973 165-299)
T1 construct: domain: Fz; it is not clear whether the construct was Fz only or a longer ROR1
Test: antibody binding to point mutants of human ROR1, FIG. 7

T1 sequence (Q01973 165-299 I254V/Q261H): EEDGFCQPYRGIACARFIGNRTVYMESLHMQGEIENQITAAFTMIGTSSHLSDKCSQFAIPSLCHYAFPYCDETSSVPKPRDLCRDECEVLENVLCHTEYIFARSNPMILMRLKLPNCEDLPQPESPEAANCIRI

binding result: no binding
B1: Clone F anti-ROR1 antibody (whole immunoglobulin) (antibody, V domains shown)
VH: EVQLVESGGGLVQPGRSLKLSCAASGFIFSEHNMAWVRQAPKKGLEWVATISDDGRNTYYRDSMRGRFTISRENARSTLYLQLDSLRSEDTATYYCASHRYNLFDSWGQGVMVTVSS
VL: DIQMTQSPSFLSASVGDRVTINCKASQNIDRYLNWYQQKLGEAPKRLLYNTNKLQTGIPSRFSGSGSATDFTLTISSLQPEDFATYFCLQYNSLPLTFGSGTKLEIK
notes: Rat variable domains; also called clone F antibody
